In PMC7481185:

Biological target: enolase (AP-MS) (Arabidopsis thaliana) (UniProt P25696)
Chain of UniProt P25696 (P25696 whole entry): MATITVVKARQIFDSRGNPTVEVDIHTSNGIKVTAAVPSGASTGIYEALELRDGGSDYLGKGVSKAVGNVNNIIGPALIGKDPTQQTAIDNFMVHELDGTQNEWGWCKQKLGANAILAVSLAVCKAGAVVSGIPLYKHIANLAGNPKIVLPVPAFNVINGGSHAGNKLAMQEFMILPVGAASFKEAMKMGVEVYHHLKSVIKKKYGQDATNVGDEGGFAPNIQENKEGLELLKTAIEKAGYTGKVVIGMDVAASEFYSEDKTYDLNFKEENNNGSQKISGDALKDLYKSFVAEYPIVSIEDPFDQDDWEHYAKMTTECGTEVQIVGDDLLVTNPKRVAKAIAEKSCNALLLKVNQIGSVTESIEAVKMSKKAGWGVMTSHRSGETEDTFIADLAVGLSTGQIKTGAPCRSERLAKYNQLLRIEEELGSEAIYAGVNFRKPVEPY

phosphoglycerate mutase 1 (AP-MS) (enzyme)
efficiency (Kcat/KM) of the conversion of 3PGA to pyruvate, NADH-coupled assay: isolated mitochondria (complex) against total extra-plastidial extract (free enzymes): 19 times
